The text below walks through data of the RNAGym collection of RNA variant scans (doi:10.7554/elife.90254).

B1: LINE1-full (parent)
chain: UACGUAGGUGGUUUUCCCCUGAUAGUGCUAAGGGGGCCUGGAAGUUUGGACUGGGCAGAGCUCAACACAGCGUGGCAAAGUGGCUGUGGCUAGACUGCCUCUCUGGAUUCCUCGUCACUCAGCAGGGCAUCUCUGAGAGAAAUGCC

Variants of B1 are the subject of the data set. Description: self-cleavage, relative activity (ratio to wild type); higher = more cleavage; in vitro, sequencing; the parent is a self-cleaving ribozyme.
Take UACGUAGGUGGUUUUCCCCUGAUAGCGCUAAGGGGGCCUGGAAGAUUGGACUGGGCAGAGCUCAACACAGCGUGGCAAAGUGGCUGUGGCUAGACUGCCUCUCUGGAUUCCUCGUCACUCAGCAGGGCAUCUCUGAGAGAAAUGCC: the self-cleavage was found to be 0.99.

For the variant UACGUAGGUGGUUUUCCCCUGAUAGCGCUAAGGGGGCCUGGAAGCUUGGACUGGGCAGAGCUCAACACAGCGUGGCAAAGUGGCUGUGGCUAGACUGCCUCUCUGGAUUCCUCGUCACUCAGCAGGGCAUCUCUGAGAGAAAUGCC, the self-cleavage is 1.07.

UACGUAGGUGGUUUUCCCCUGAUAGCGCUAAGGGGGCCUGGAAGUUUGGACUGGGCAGAGCUCAACACAGCGUGGCAAAGUGGCUGUGGCUAGACUGCCUCUCUGGAUUCCUCGUCACUCAGCAGGGCAUCUCUGAGAAAAAUGCC: the self-cleavage turned out to be 1.34.

As to UACGUAGGUGGUUUUCCCCUGAUAGCGCUAAGGGGGCCUGGAAGUUUGGACUGGGCAGAGCUCAACACAGCGUGGCAAAGCGGCUGUGGCUAGACUGCCUCUCUGGAUUCCUCGUCACUCAGCAGGGCAUCUCUGAGAGAAAUGCC, the self-cleavage came to 1.93.

As for UACGUAGGUGGUUUUCCCCUGAUAGCGCUAAGGGGGCCUGGAAGUUUGGACUGGGCAGAGCUCAACACAGCGUGGCAAAGAGGCUGUGGCUAGACUGCCUCUCUGGAUUCCUCGUCACUCAGCAGGGCAUCUCUGAGAGAAAUGCC, the self-cleavage worked out at 1.68.

For UACGUAGGUGGUUUUCCCCUGAUAGCGCUAAGGGGGCCUGGAAGUUUGGACUGGGCAGAGCUCAACACAGCUUGGCAAAGUGGCUGUGGCUAGACUGCCUCUCUGGAUUCCUCGUCACUCAGCAGGGCAUCUCUGAGAGAAAUGCC, the self-cleavage was 1.02.

In the case of UACGUAGGUGGUUUUCCCCUGAUAGCGCUAAGGGGGCCUGGAAGUUUGGACUGGGCAGAGCUCAACACAGCAUGGCAAAGUGGCUGUGGCUAGACUGCCUCUCUGGAUUCCUCGUCACUCAGCAGGGCAUCUCUGAGAGAAAUGCC, the self-cleavage worked out at 0.93.

Turning to UACGUAGGUGGUUUUCCCCUGAUAGCGCUAAGGGGGCCUGGAAGUUUGGACUGGGCAGAGCUCAACACAGCGUGGCAAAGUGGCUGUGGCUAGACUACCUCUCUGGAUUCCUCGUCACUCAGCAGGGCAUCUCUGAGAGAAAUGCC, the self-cleavage is 0.07.

For UACGUAGGUGGUUUUCCCCUGAUAGCGCUAAGGGGGCCUGGAAGUUUGGACUGGGCAGAGCUCAACACAGCGUGGCAAAGUGGCUGUGGCUAGACUGCCUCUCUGGAUUCCUCGUCACUCAGCAGGGCAUCUCUGAGAGAAAUGCU, the self-cleavage is 1.68.

In the case of UACGUAGGUGGUUUUCCCCUGAUAGCGCUAAGUGGGCCUGGAAGUUUGGACUGGGCAGAGCUCAACACAGCGUGGCAAAGUGGCUGUGGCUAGACUGCCUCUCUGGAUUCCUCGUCACUCAGCAGGGCAUCUCUGAGAGAAAUGCC, the self-cleavage stood at 1.01.

With UACGUAGGUGGUUUUCCCCUGAUAGCGCUAAGAGGGCCUGGAAGUUUGGACUGGGCAGAGCUCAACACAGCGUGGCAAAGUGGCUGUGGCUAGACUGCCUCUCUGGAUUCCUCGUCACUCAGCAGGGCAUCUCUGAGAGAAAUGCC, the self-cleavage was 0.7.

Consider UACGUAGGUGGUUUUCCCCUGAUAGCGCUAAGGGGGCCUGGAAGUUUGGACUGGGCAGAGCUCAACACAGCGUGGCAAAGUGGCUGUAGCUAGACUGCCUCUCUGGAUUCCUCGUCACUCAGCAGGGCAUCUCUGAGAGAAAUGCC, for which the self-cleavage turned out to be 0.05.

Consider UACGUAGGUGGUUUUCCCCUGAUAGCGCUAAGGGGGCCUGGAAGUUUGGACUGGGCAGAACUCAACACAGCGUGGCAAAGUGGCUGUGGCUAGACUGCCUCUCUGGAUUCCUCGUCACUCAGCAGGGCAUCUCUGAGAGAAAUGCC, for which the self-cleavage was determined as 0.12.

On to UACGUAGGUGGUUUUCCCCUGAUAGCGCUAAGGGGGCCUGGAAGUUUGGACUGGGCAGAGCUCAACACAGCGUGGCAAAGUGGCUGUGGCUAGACUGCCCCUCUGGAUUCCUCGUCACUCAGCAGGGCAUCUCUGAGAGAAAUGCC, for which the self-cleavage came to 1.29.

Turning to UACGUAGGUGGUUUUCCCCUGAUAGCGCUAAGGGGGCCUGGAAGUUUGGACUGGGCAGAGCUCAACACAGCGUGGCAAAGUGGCUGUGGCUAGACUGCCUCUCUGGAUUCCUCGUCACUCAUCAGGGCAUCUCUGAGAGAAAUGCC, the self-cleavage stood at 1.05.

UACGUAGGUGGUUUUCCCCUGAUAGCGCUAAGGGGGCCUGGAAGUUUGGACUGGGCAGAGCUCAACACAGCGUGGCAAAGUGGCUGCGGCUAGACUGCCUCUCUGGAUUCCUCGUCACUCAGCAGGGCAUCUCUGAGAGAAAUGCC: the self-cleavage was determined as 0.26.

Take UACGUAGGUGGUUUUCCCCUGAUAGCGCUAAGGGGGCCUGGAAGUUUGGACUGGGCAGAGCUCAACACAGCGUGGCAAAGUGGCUGUGGCUAGACUGCCUCUCUGGAUUCCUCGUCACUCAGCAAGGCAUCUCUGAGAGAAAUGCC: the self-cleavage stood at 1.61.

Turning to UACGUAGGUGGUUUUCCCCUGAUAGCGCUAAGGGGGCCUGGAAGUUUGGACUGGGCAGAGCUCAACACAGCGUGGCAAAGUGGCUGUGGCUAGACUGCCUCUCUGGAUUCCUCGUCACUCAGCAUGGCAUCUCUGAGAGAAAUGCC, the self-cleavage was determined as 0.92.

With UACGUAGGUGGUUUUCCCCUGAUAGCGCUAAGGGGGCCUGGAAGUUUGGACUGGGCAGAGCUCAACACAGCGGGGCAAAGUGGCUGUGGCUAGACUGCCUCUCUGGAUUCCUCGUCACUCAGCAGGGCAUCUCUGAGAGAAAUGCC, the self-cleavage came to 0.97.

In the case of UACGUAGGUGGUUUUCCCCUGAUAGCGCUAACGGGGCCUGGAAGUUUGGACUGGGCAGAGCUCAACACAGCGUGGCAAAGUGGCUGUGGCUAGACUGCCUCUCUGGAUUCCUCGUCACUCAGCAGGGCAUCUCUGAGAGAAAUGCC, the self-cleavage was determined as 0.94.

Regarding UACGUAGGUGGUUUUCCCCUGAUAGCGCUAAAGGGGCCUGGAAGUUUGGACUGGGCAGAGCUCAACACAGCGUGGCAAAGUGGCUGUGGCUAGACUGCCUCUCUGGAUUCCUCGUCACUCAGCAGGGCAUCUCUGAGAGAAAUGCC, the self-cleavage stood at 1.03.

Turning to UACGUAGGUGGUUUUCCCCUGAUAGCGCUAAGGGGGCCAGGAAGUUUGGACUGGGCAGAGCUCAACACAGCGUGGCAAAGUGGCUGUGGCUAGACUGCCUCUCUGGAUUCCUCGUCACUCAGCAGGGCAUCUCUGAGAGAAAUGCC, the self-cleavage worked out at 1.9.

Regarding UACGUAGGUGGUUUUCCCCUGAUAGCGCUAAGGGGGCCGGGAAGUUUGGACUGGGCAGAGCUCAACACAGCGUGGCAAAGUGGCUGUGGCUAGACUGCCUCUCUGGAUUCCUCGUCACUCAGCAGGGCAUCUCUGAGAGAAAUGCC, the self-cleavage is 0.65.

Regarding UACGUAGGUGGUUUUCCCCUGAUAGCGCUAAGGGGGCCUGGAAGUUCGGACUGGGCAGAGCUCAACACAGCGUGGCAAAGUGGCUGUGGCUAGACUGCCUCUCUGGAUUCCUCGUCACUCAGCAGGGCAUCUCUGAGAGAAAUGCC, the self-cleavage worked out at 1.88.

Regarding UACGUAGGUGGUUUUCCCCUGAUAGCGCUAAGGGGGCCUGGAAGUUUGGACUGGGCAGAGCUCAACACAGCGUGGCAAAGUGGCUAUGGCUAGACUGCCUCUCUGGAUUCCUCGUCACUCAGCAGGGCAUCUCUGAGAGAAAUGCC, the self-cleavage was 0.05.

Consider UACGUAGGUGGUUUUCCCCUGAUAGCGCUAAGGGCGCCUGGAAGUUUGGACUGGGCAGAGCUCAACACAGCGUGGCAAAGUGGCUGUGGCUAGACUGCCUCUCUGGAUUCCUCGUCACUCAGCAGGGCAUCUCUGAGAGAAAUGCC, for which the self-cleavage was 2.65.

As to UACGUAGGUGGUUUUCCCCUGAUAGCGCUAAGGGUGCCUGGAAGUUUGGACUGGGCAGAGCUCAACACAGCGUGGCAAAGUGGCUGUGGCUAGACUGCCUCUCUGGAUUCCUCGUCACUCAGCAGGGCAUCUCUGAGAGAAAUGCC, the self-cleavage worked out at 1.56.

Take UACGUAGGUGGUUUUCCCCUGAUAGCGCUAAGGGGGCCUGGAAGUUUGGACUGGGCAGAGCUCAACACAGCGUGGCAAAGUGGCUGUGGCUAGACUGCCUCUCUUGAUUCCUCGUCACUCAGCAGGGCAUCUCUGAGAGAAAUGCC: the self-cleavage worked out at 1.57.

Turning to UACGUAGGUGGUUUUCCCCUGAUAGCGCCAAGGGGGCCUGGAAGUUUGGACUGGGCAGAGCUCAACACAGCGUGGCAAAGUGGCUGUGGCUAGACUGCCUCUCUGGAUUCCUCGUCACUCAGCAGGGCAUCUCUGAGAGAAAUGCC, the self-cleavage came to 1.15.

UACGUAGGUGGUUUUCCCCUGAUAGCGCUAAGGGGGCCUGGAAGUUUGGACUGGGCAGAGCUCAACACAGCGUAGCAAAGUGGCUGUGGCUAGACUGCCUCUCUGGAUUCCUCGUCACUCAGCAGGGCAUCUCUGAGAGAAAUGCC: the self-cleavage amounted to 1.17.

Consider UACGUAGGUGGUUUUCCCCUGAUAGCGCUAAGGGGGCCUGGAAGUUUGGACUGGGCAGAGCUCAACACAGCGUUGCAAAGUGGCUGUGGCUAGACUGCCUCUCUGGAUUCCUCGUCACUCAGCAGGGCAUCUCUGAGAGAAAUGCC, for which the self-cleavage stood at 1.42.

UACGUAGGUGGUUUUCCCCUGAUAGCGCUAAGGGGGCCUGGAAGUUUGGACUGGGCAGAGCUCAACACAGCGUGGCAAAGUGGCUGUGGCUAGACCGCCUCUCUGGAUUCCUCGUCACUCAGCAGGGCAUCUCUGAGAGAAAUGCC: the self-cleavage is 0.29.

Regarding UACGUAGGUGGUUUUCCCCUGAUAGCGCUAAGGGGGCCUGGAAGUUUGGACUGGGCAGAGCCCAACACAGCGUGGCAAAGUGGCUGUGGCUAGACUGCCUCUCUGGAUUCCUCGUCACUCAGCAGGGCAUCUCUGAGAGAAAUGCC, the self-cleavage stood at 0.1.

Consider UACGUAGGUGGUUUUCCCCUGAUAGCGCUAAGGGGGCCUGGAAGUUUGGACUGGGCAGAGCUCAACACAGCGUGGCAAAGUGGCUGUGGCUAGACUGCCUCUCUGGAUUCCUCAUCACUCAGCAGGGCAUCUCUGAGAGAAAUGCC, for which the self-cleavage came to 1.22.

With UACGUAGGUGGUUUUCCCCUGAUAGCGCUAAGGGGGCCUGGAAGUAUGGACUGGGCAGAGCUCAACACAGCGUGGCAAAGUGGCUGUGGCUAGACUGCCUCUCUGGAUUCCUCGUCACUCAGCAGGGCAUCUCUGAGAGAAAUGCC, the self-cleavage worked out at 0.

In the case of UACGUAGGUGGUUUUCCCCUGAUAGCGCUAAGGGGGCCUGGAAGUUUGGACUGGGCAGAGCUCAACACAGCGUGGCAAAGUGGCUGUGGCUAGACUGCCUCUCUGGAUUCCUCGUCACUCAGCAGGGCAUCUCUGAGAGAAAUACC, the self-cleavage was 1.02.

As for UACGUAGGUGGUUUUCCCCUGAUAGCGCUAAGGGGGCCUGGAAGUUUGGACUGGGCAGAGCUCAACACAACGUGGCAAAGUGGCUGUGGCUAGACUGCCUCUCUGGAUUCCUCGUCACUCAGCAGGGCAUCUCUGAGAGAAAUGCC, the self-cleavage stood at 0.14.

Consider UACGUAGGUGGUUUUCCCCUGAUAGCGCUAAGGGGGCCUGGAAAUUUGGACUGGGCAGAGCUCAACACAGCGUGGCAAAGUGGCUGUGGCUAGACUGCCUCUCUGGAUUCCUCGUCACUCAGCAGGGCAUCUCUGAGAGAAAUGCC, for which the self-cleavage worked out at 1.17.

For UACGUAGGUGGUUUUCCCCUGAUAGCGCUAAGGGGGCCUGGAAGUUUGGACAGGGCAGAGCUCAACACAGCGUGGCAAAGUGGCUGUGGCUAGACUGCCUCUCUGGAUUCCUCGUCACUCAGCAGGGCAUCUCUGAGAGAAAUGCC, the self-cleavage was 1.53.
